Consider 4 molecules from PMC3702667 (Nature structural & molecular biology, 2013).

B1: untagged recombinant Rpb1_(1168–1302) (domain or fragment)
chain: not shown
B2: RECQL5 IRI domain (residues 490–620) (domain or fragment)
chain: GSGDEGRDEAHKREWNLFYQKQMQLRKGKDPKIEEFVPPDENCPLKEASSRRIPRLTVKAREHCLRLLEEALSSNRQSTRTADEADLRAKAVELEHETFRNAKVANLYKASVLKKVADIHRASKDGQPYDM
B3: GST–RECQL5_(490–620) (domain or fragment)
chain: B2 chain
B4: GST–tagged Rpb1_(1168–1302) (domain or fragment)
chain: not shown

Common to all, as to test: pull-down
One experiment concerns the target GST–fused RECQL5_(1–620) (human, UniProt O94762 1-620).
Experiment [1] has as its target B4.
In experiment [2] the target is B1.
Another experiment has as its target RECQL5_(1–620) (human, UniProt O94762 1-620).

Regarding B1, the binding result with GST–fused RECQL5_(1–620) is “binds”.

For the molecule B2, the binding result in experiment [1] was “binds”.

For B3, the binding result in experiment [2] is given as “binds”.

As to B4, the binding result in the experiment with RECQL5_(1–620) is on record as “binds”.
